Our source for the Kd and Notch1 activation (fluorescent Notch1 reporter cells, co-culture) values is patent US20220348617A1.

Assay [1] concerns the target Notch 3 EGF domains 5-12 (human) (UniProt Q9UM47). Kind of assay: SPR. Particulars: ligand.
In assay [2] the target is Notch2 EGF domains 6-13 (human) (UniProt Q04721). The assay can be described thus: SPR. Particulars: ligand.
Assay [3] concerns the target Notch1 EGF domains 6-13 (human) (UniProt P46531). The assay can be described thus: SPR. Particulars: ligand.
The target in assay [4] is Notch 3 EGF domains 5-12 (human) (UniProt Q9UM47). The assay can be described thus: SPR; N-EGF3. The note with it: ligand. For orientation: Surface plasmon resonance follows binding to a sensor surface in real time, without labels.
The target in assay [5] is Notch2 EGF domains 6-13 (human) (UniProt Q04721). Kind of assay: SPR; N-EGF3. The note with it: ligand.
Assay [6] deals with Notch1 EGF domains 6-13 (human) (UniProt P46531). Kind of assay: SPR; N-EGF3. The note with it: ligand.
For assay [7], the target named is Notch1 on the fluorescent Notch1 reporter cell line (CHO^N1). The assay can be described thus: cell-based or functional assay.

Notch2 EGF domains 6-13 (human), sequence (Q04721 221-530): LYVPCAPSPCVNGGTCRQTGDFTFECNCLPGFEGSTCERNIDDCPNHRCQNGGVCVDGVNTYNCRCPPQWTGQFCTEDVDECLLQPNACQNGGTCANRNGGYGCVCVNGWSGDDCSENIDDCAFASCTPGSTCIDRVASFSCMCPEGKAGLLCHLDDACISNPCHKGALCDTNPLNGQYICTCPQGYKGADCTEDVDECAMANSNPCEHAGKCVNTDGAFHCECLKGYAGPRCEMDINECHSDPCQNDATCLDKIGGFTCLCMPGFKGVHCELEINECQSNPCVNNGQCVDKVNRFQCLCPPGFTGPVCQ
Notch 3 EGF domains 5-12 (human), sequence (Q9UM47 197-505): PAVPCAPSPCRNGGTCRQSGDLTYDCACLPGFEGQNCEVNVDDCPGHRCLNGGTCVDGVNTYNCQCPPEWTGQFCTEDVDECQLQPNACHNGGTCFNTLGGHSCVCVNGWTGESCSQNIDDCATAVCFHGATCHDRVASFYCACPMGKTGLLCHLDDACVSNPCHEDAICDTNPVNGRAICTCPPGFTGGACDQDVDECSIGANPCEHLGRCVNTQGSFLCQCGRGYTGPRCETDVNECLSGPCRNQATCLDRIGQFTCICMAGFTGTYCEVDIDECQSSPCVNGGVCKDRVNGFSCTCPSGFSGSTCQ
Notch1 EGF domains 6-13 (human), sequence (P46531 218-526): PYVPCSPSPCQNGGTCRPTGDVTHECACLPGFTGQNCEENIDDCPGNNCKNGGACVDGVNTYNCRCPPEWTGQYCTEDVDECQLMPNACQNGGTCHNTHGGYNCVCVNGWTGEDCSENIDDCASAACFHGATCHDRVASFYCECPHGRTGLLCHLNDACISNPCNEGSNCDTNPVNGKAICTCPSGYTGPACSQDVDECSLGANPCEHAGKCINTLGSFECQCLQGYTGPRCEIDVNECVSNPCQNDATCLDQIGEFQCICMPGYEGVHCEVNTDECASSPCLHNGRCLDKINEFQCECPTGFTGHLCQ

Regarding “N3a.5_E12 human DLL4 (from UniProt Q9NR61 27-322)”, the Kd is 4.7 nM in assay [1], 7.4 nM in assay [2] and 2 nM in assay [3].

In the case of “E12 human DLL4 (from UniProt Q9NR61 27-322)”, the Kd in assay [4] was determined as 122 nM; in assay [5], 244 nM; in assay [6] it was 103 nM; in assay [1], 470 nM; in assay [2], 750 nM; in assay [3], 450 nM.

Turning to “wild-type human DLL4 expressed on 293T cells (from UniProt Q9NR61 27-685) (ligand)”, the Notch1 activation (fluorescent Notch1 reporter cells, co-culture) in assay [7] worked out at 100%.

For “N3a.8_E12 human DLL4 (from UniProt Q9NR61 27-322)”, the Kd was determined as 7.2 nM in assay [1], 15.3 nM in assay [2] and 4.2 nM in assay [3].

What is called Kd is the concentration at which binding is half-saturated. Low values mean higher affinity, high ones lower affinity.
